Patent publication US20220073630A1 (Hoffmann-La Roche, published 2022)

T1: murine fibroblast activation protein (FAP) (murine, UniProt P97321 1-761)
T1 construct: whole, on cells; also called mFAP; murine FAP
T1 sequence: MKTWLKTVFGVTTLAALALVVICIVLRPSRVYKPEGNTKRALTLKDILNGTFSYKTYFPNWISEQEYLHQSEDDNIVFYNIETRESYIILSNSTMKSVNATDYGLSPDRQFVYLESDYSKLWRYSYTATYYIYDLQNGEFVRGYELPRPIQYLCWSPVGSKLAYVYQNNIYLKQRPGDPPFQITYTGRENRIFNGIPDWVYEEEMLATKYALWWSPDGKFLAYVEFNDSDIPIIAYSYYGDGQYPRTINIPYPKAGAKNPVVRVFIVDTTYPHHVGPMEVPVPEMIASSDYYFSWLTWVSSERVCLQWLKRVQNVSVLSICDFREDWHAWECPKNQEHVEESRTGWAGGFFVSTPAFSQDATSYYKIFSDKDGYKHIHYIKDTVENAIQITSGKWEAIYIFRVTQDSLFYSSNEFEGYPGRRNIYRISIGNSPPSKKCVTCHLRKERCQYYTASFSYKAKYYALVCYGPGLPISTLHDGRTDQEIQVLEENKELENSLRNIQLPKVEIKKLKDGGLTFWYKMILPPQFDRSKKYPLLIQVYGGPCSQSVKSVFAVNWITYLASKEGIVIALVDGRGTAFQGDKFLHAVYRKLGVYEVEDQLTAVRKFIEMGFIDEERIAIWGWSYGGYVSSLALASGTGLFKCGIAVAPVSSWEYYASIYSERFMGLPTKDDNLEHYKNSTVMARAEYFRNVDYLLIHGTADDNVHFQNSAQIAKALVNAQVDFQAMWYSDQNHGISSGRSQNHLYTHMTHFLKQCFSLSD

B1: m38-pMHC-I-anti-FAP-IgG (other)
heavy 1: SSPPMFRVGCGGSGGGGSGGGGSIQKTPQIQVYSRHPPENGKPNILNCYVTQFHPPHIEIQMLKNGKKIPKVEMSDMSFSKDWSFYILAHTEFTPTETDTYACRVKHASMAEPKTVYWDRDMGGGGSGGGGSGGGGSGGGGSGPHSLRYFVTAVSRPGLGEPRYMEVGYVDDTEFVRFDSDAENPRYEPRARWMEQEGPEYWERETQKAKGNEQSFRVDLRTLLGCYNQSKGGSHTIQVISGCEVGSDGRLLRGYQQYAYDGCDYIALNEDLKTWTAADMAALITKHKWEQAGEAERLRAYLEGTCVEWLRRYLKNGNATLLRTDSPKAHVTHHSRPEDKVTLRCWALGFYPADITLTWQLNGEELIQDMELVETRPAGDGTFQKWASVVVPLGKEQYYTCHVYHQGLPEPLTLRWGSEVQLLESGGGLVQPGGSLRLSCAASGFTFSSHAMSWVRQAPGKGLEWVSAIWASGEQYYADSVKGRFTISRDNSKNTLYLQMNSLRAEDTAVYYCAKGWLGNFDYWGQGTLVTVSSAKTTAPSVYPLAPVCGGTTGSSVTLGCLVKGYFPEPVTLTWNSGSLSSGVHTFPALLQSGLYTLSSSVTVTSNTWPSQTITCNVAHPASSTKVDKKIEPRVPITQNPCPPLKECPPCAAPDAAGGPSVFIFPPKIKDVLMISLSPMVTCVVVDVSEDAPDVQISWFVNNVEVHTAQTQTHREDYNSTLRVVSALPIQHQDWMSGKEFKCKVNNRALGSPIEKTISKPRGPVRAPQVCVLPPPAEEMTKKEFSLSCAITGFLPAEIAVDWTSNGRTEQNYKNTATVLDSDGSYFMVSKLRVQKSTWERGSLFACSVVHEGLHNHLTTKTISRSLGK
heavy 2: EVQLLESGGGLVQPGGSLRLSCAASGFTFSSHAMSWVRQAPGKGLEWVSAIWASGEQYYADSVKGRFTISRDNSKNTLYLQMNSLRAEDTAVYYCAKGWLGNFDYWGQGTLVTVSSAKTTAPSVYPLAPVCGGTTGSSVTLGCLVKGYFPEPVTLTWNSGSLSSGVHTFPALLQSGLYTLSSSVTVTSNTWPSQTITCNVAHPASSTKVDKKIEPRVPITQNPCPPLKECPPCAAPDAAGGPSVFIFPPKIKDVLMISLSPMVTCVVVDVSEDAPDVQISWFVNNVEVHTAQTQTHREDYNSTLRVVSALPIQHQDWMSGKEFKCKVNNRALGSPIEKTISKPRGPVRAPQVYVLPPCAEEMTKKEFSLWCMITGFLPAEIAVDWTSNGRTEQNYKNTATVLDSDGSYFMYSKLRVQKSTWERGSLFACSVVHEGLHNRFTTKTISRSLGK
light: EIVLTQSPGTLSLSPGERATLSCRASQSVSRSYLAWYQQKPGQAPRLLIIGASTRATGIPDRFSGSGSGTDFTLTISRLEPEDFAVYYCQQGQVIPPTFGQGTKVEIKRADAAPTVSIFPPSSEQLTSGGASVVCFLNNFYPKDINVKWKIDGSERQNGVLNSWTDQDSKDSTYSMSSTLTLTKDEYERHNSYTCEATHKTSTSPIVKSFNRNEC
notes: also called mCMV m38-pMHC-I-anti-FAP-IgG; pMHC-I-IgG
B2: IE3-pMHC-I-anti-FAP-IgG (other)
heavy 1: RALEYKNLGCGGSGGGGSGGGGSIQKTPQIQVYSRHPPENGKPNILNCYVTQFHPPHIEIQMLKNGKKIPKVEMSDMSFSKDWSFYILAHTEFTPTETDTYACRVKHASMAEPKTVYWDRDMGGGGSGGGGSGGGGSGGGGSGPHSLRYFVTAVSRPGLGEPRYMEVGYVDDTEFVRFDSDAENPRYEPRARWMEQEGPEYWERETQKAKGNEQSFRVDLRTLLGCYNQSKGGSHTIQVISGCEVGSDGRLLRGYQQYAYDGCDYIALNEDLKTWTAADMAALITKHKWEQAGEAERLRAYLEGTCVEWLRRYLKNGNATLLRTDSPKAHVTHHSRPEDKVTLRCWALGFYPADITLTWQLNGEELIQDMELVETRPAGDGTFQKWASVVVPLGKEQYYTCHVYHQGLPEPLTLRWGSEVQLLESGGGLVQPGGSLRLSCAASGFTFSSHAMSWVRQAPGKGLEWVSAIWASGEQYYADSVKGRFTISRDNSKNTLYLQMNSLRAEDTAVYYCAKGWLGNFDYWGQGTLVTVSSAKTTAPSVYPLAPVCGGTTGSSVTLGCLVKGYFPEPVTLTWNSGSLSSGVHTFPALLQSGLYTLSSSVTVTSNTWPSQTITCNVAHPASSTKVDKKIEPRVPITQNPCPPLKECPPCAAPDAAGGPSVFIFPPKIKDVLMISLSPMVTCVVVDVSEDAPDVQISWFVNNVEVHTAQTQTHREDYNSTLRVVSALPIQHQDWMSGKEFKCKVNNRALGSPIEKTISKPRGPVRAPQVCVLPPPAEEMTKKEFSLSCAITGFLPAEIAVDWTSNGRTEQNYKNTATVLDSDGSYFMVSKLRVQKSTWERGSLFACSVVHEGLHNHLTTKTISRSLGK
heavy 2: EVQLLESGGGLVQPGGSLRLSCAASGFTFSSHAMSWVRQAPGKGLEWVSAIWASGEQYYADSVKGRFTISRDNSKNTLYLQMNSLRAEDTAVYYCAKGWLGNFDYWGQGTLVTVSSAKTTAPSVYPLAPVCGGTTGSSVTLGCLVKGYFPEPVTLTWNSGSLSSGVHTFPALLQSGLYTLSSSVTVTSNTWPSQTITCNVAHPASSTKVDKKIEPRVPITQNPCPPLKECPPCAAPDAAGGPSVFIFPPKIKDVLMISLSPMVTCVVVDVSEDAPDVQISWFVNNVEVHTAQTQTHREDYNSTLRVVSALPIQHQDWMSGKEFKCKVNNRALGSPIEKTISKPRGPVRAPQVYVLPPCAEEMTKKEFSLWCMITGFLPAEIAVDWTSNGRTEQNYKNTATVLDSDGSYFMYSKLRVQKSTWERGSLFACSVVHEGLHNRFTTKTISRSLGK
light: EIVLTQSPGTLSLSPGERATLSCRASQSVSRSYLAWYQQKPGQAPRLLIIGASTRATGIPDRFSGSGSGTDFTLTISRLEPEDFAVYYCQQGQVIPPTFGQGTKVEIKRADAAPTVSIFPPSSEQLTSGGASVVCFLNNFYPKDINVKWKIDGSERQNGVLNSWTDQDSKDSTYSMSSTLTLTKDEYERHNSYTCEATHKTSTSPIVKSFNRNEC
notes: Same build as m38-pMHC-I-anti-FAP-IgG, with the control peptide IE3; also called mCMV IE3-pMHC-I-anti-FAP-IgG; control fusion protein

Biological target: T1, murine fibroblast activation protein …
Test: flow cytometry on target cells (data not shown)

Row | Binder | binding result
1 | B1 | binds
2 | B2 | binds
